Test results published in the domain aggregation screens of Martell et al. (2025).

Experiment: soluble fraction after stress (log2 fold change); higher = more stays soluble; pooled small domains, quantitative proteomics
Details: stress: pH 4
Method in brief: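 How much of each domain stays soluble after acid stress, expressed as a fold change, is used to gauge aggregation propensity. Pooled custom libraries of small domains underwent pH 4 stress before high-throughput quantitative proteomics. A higher log2 value means more of the domain stayed soluble.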

Row | Sequence | soluble fraction (log2)
1 | HMIANNFDEFVEKVSEAERKALNMPAGQEMTQKLLEMKLAANPNLTPEEWQRTKSEFMTFLFAVFVRE | -1.02
2 | HMGTKVGAPLPGTITEVKVKVGDTVKAGDAVIILEAMKMQNNIEAEVSGTVSSVLVKEGDTVMEGDALITI | -1.18
3 | HMYTVVVGDSPSLIADKTGVPLKELTAMNPNLSDNFLPGKQLL | -0.076
4 | HMSKTQVKSVLDDIKGIGVVRRKALIKHFNDIEAIKAAQLAELKAVAGMDSKSAQSVYDFFHK | ≥ 0.43
5 | HMVPDGFDQLTEREYQVAMAVGKGLNNKEIASQLGLGERTVKAHLTTTFEKLHVRDRVQLALIVNRL | -0.404
6 | HMSEKYPPIDWNNIKTGQSVLIKDINQVVSLTKLPDSKGFAEVQMGLIKTKIKAEKLAATDKKPNK | -0.0179
7 | HMKAQLQHIIGSNIKLARNTQGYTQEGLAERAEISVEHLKQVERGKKMLSVESLVNVANALQVSVDSLV | -0.205
8 | HMGTSQSAVKAILAQLISDENKQKPYSDEALSRLLQQQGIDIARRTVAKYREALNIPPAHQRK | 0.365
9 | HMKHRFVVGEVLSIGKLQHEITLKTAQGERKFQLDKQDLPASIQDGAKVRAELNEAGRVIDVHPLK | -0.178
10 | HMFNDPTMEDALVNLKGITNEVLSYLSSSKIKKLEELAEMSVPELKDIVENISDDEASALIMEARKPWF | -1.32
11 | HMATQMSSARRGIATDEMKQVAKDEDVTLDWLLPKIAIGSIIIPSNNVRPQKIHNVGIGKGMKTKVN | -0.246
12 | HMKTELAYDFHSRIRDARIREGLSQVDLAKRMNEKIAVIQKAENGIRPTDSLIAKFSKALSVELYVE | -0.604
13 | HMKELLTKQQREEILETVKTKTPKDFGYTAEHWTTGFLGKWIEEHYEVEYKSKTSLYLVFKKASFTYHKPG | 0.0606
14 | HMTLSAPMPGTVLKIHVKEGQRVRKGQTLVVLEAMKMEHRIQAPKAGEVTNLHFSEGDRVDMGEILVEIG | -0.905
15 | HMIRALVPGQTLHGEIVGRNGGEVQVRLAEDMILNARVDQNIYLELGKDLTFEVKNNGATLTLSPL | -0.552
16 | HMVLRPDDVEDSLWREWVSHRKAKRAAVTEGVLKTFRQEATKASFTLADAMRKSIDRGWTGFEAEWVARET | -0.325
17 | HMPRDYYAVLEVSVSSTPVQIRQAYQRLARRYSPDVNFLDRDTEALFEEIVEAYRVLSNPTARTLYDRG | -3.04
18 | HMVEVPYSEFLKELDAGNVKDVYVSNGESQIQFTKKDQKQWNLSYKTGPIPGDDLVKRLQNADVENFT | -0.282
19 | HMALQLPFSFAKRHKVLVESAHEPVKVYHTPSTDFAVFAEVRRFLDQTFVLEEIAENRFEELLTSSFQRD | -1.46
20 | HMAIPEVDPAKQGVSATQLAALDALAHRNAGEGRVAGMVNVVIRNGEIVYYKATGPRHIDGGAPLKSTDLF | 0.0394
21 | HMAEPLEIGDTVRIIDGFYGGEIGVISELVNPDAKNAEFEQVRVRLDQDTELALPIHNVERVRL | -0.0894
22 | HMSNEIIFNQKSITRFLMNPENNSPMIYPLELGHEMKVIKKNNDWLNVTDEKTGLNGWVISDDFGLTKPEG | -0.133
23 | HMNSKYILLQVSDIPKTSLVLERQFGVTEYSVQDEHTLRIYDTSLDMAAVNKALVVQDIAVISSQL | -1.3
24 | HMSAGPQGRTPREDELTVGTKVYVSRVGASGVVSSDVSRGKVVVQVGALRLTAAVSELLLLDG | -0.472
25 | HMTGETWAERSRALAAAGLIVMGQEAKNKIEDLPSLSPLIEAAAASETRLLTGQIIDELLAFV | -1.04
26 | HMALKSYEDMVGKTGVAYTVLRPSGKVIINDELFDATARSGMIEKGNEVIIYDYKNAQLIVEK | -0.518

Row | Sequence | soluble fraction (log2)
27 | HMLISAESVKRRLEMIRHLILLGDYEDVTAQVIKLNPAANEYKLTPIIEELNGGKYQEALEKINSYLSKF | -0.127
28 | HMGQQPPVTEIYKNHDGNKDGLLEAGEVTGSRYARQFPRWDVNGDQKVSPQEVIAFRKRFGIAADGTLL | 0.0862
29 | HMPAKDAEFTAFVRSATPTLTRTAYLLTGDRETASDLVQEAFVRTYLAWRRVRPEEATAYTRRVLVN | 0.22
30 | HMQTTEDMEINAKVDEYLREMYLWNDEYKTLNLDHNKGYEDFFYDALGSMTTNTLDKKTYVGSDGKTYYNL | -0.933
31 | HMHLEKGEVVVPDLKGLTMRQVGELLGKLNLRYSFSGTGLAVKQFPESGQIVNQGDIIEVIF | 0.174
32 | HMTETFVLNLRQPIAAAPVLPGYRVARTDEQTLEVEVSKDQNLNEIFTALSALGVEVLSMRNK | -0.303
33 | HMGKQIKEIVEEYYDSTSKNSPVGGSWKTSLDGVDLTSPNITIWTRTKIKYVDGSESIVTPQSL | -0.528
34 | HMSEPQEISYSDFIEQVNRNEIRQVEFDGQHEYLTVIRKDTSRFKVIIPAPDPRLLDDLMEHDVEIVGKE | 0.0554
35 | HMDPAFAQHHDRALSILHSRGYEVHDSDTDLHWARPVLEFEAYKGSLEYKIVMSYPDLNIIEERVD | -0.685
36 | HMFLTDHEVSKVARKRAHAEYLSSLSWRQRTFGDHGERSKNFEAWYKEHSHLYETEKLYKELYKN | 0.245
37 | HMKRIDTILETFAKVHKHIPSKLILLGDGPELLDMRKIARSLHIEDDVLFLGKQDQVSKFYQMADLVLLL | 0.15
38 | HMDITTIIADVPGPKTQIKVDIKNTSLHIFGGMNFKKEIDIGDNKEIINIKYINGTLTVKLKT | -0.466
39 | HMLEDYFKEEEYTEVLKIPKEYIKGFQYYLIEDAEFVNALRAKNKTMTLFLAKKLASDYIEIIRREQ | -1.31
40 | HMPQKIVIQKGVVIKKRERSDAWQIYITVKGKKPIRKSANTDNVEKAKQMALTLFAEKNYKVENNLPIQ | -0.0334
41 | HMPKSVRQSFVYSPMYRDVEYLADFLRNNNKDDSSVSASGDKLVYYGTADEIARVKSVLKGVDV | -0.51
42 | HMAISQYGSQSDEVTKIQTRLKAWGYFDGPVTAYYGSQTTEAVKKFQQKHGLSATGVADAKTLELIGLP | 0.056
43 | HMHQIFAETVFEDIAFGPRNKGFNEEEVAKQVREAMAFVGLDYDTYAQRSPFQLSGGQMRRVAIAGVVA | -0.874
44 | HMDKVVGSAGDVTSRITANSGEVKIDGQIWQARSYDETIAIEAGEKIEVFDLDGITLIVYPI | -1.19
45 | HMTQFSLTTEEINVLKKSYSEFTDSDKELFNKILEKYNKFKNESSNDIAFEAKILEKLQEIENFYE | -1.45
46 | HMSSSTFVGRVAVITIGEARQNSPAEARFKDRHGTTHYVMVEPMEDVVFKQGDKVLLVESAGATFKVIEPA | -0.00194
47 | HMDMAENEEYKVIMGQAQQLAEQFFPADDNTRRIMLGQLKLENYSLYLLTKQILDEATKGQAAAAN | -0.651
48 | HMLGSQQAYTDALRLTGLPVDIEVIESDRLPFLIPMRYSLDQHLIEVNVRYPDTRAIRVQQMVEELFHA | -0.415
49 | HMVQLAEGERYRRIQEANDFINRQQWPGKAAMGRLKDTEKAQYNLWLDYLDALEAVDTSSAPKINWPVPPE | -0.156
50 | HMKVDLSEEEKTILELLKKESPQELETIKAASTLSNKKWDKAIKGLRKHNLAKVNKTDDGLFVELE | 0.105
51 | HMTHRRLELTLDAIDERLDRALTAAVPELSRMQWQRLIREGLVTVDGERARPSYRIQGGETLVALVPEV | -0.167
52 | HMQNSPVFAASDIEDIRVGMTVEHQRFGQGRVMSIEGNGPNKKTTVLFEGIGEKQLLLQYAKLKIV | -0.242

Row | Sequence | soluble fraction (log2)
53 | HMNNVRIEHIDTIGTVRLHKKRGVKRVSLRIHQSGEIRVTQPLYLPFSAGVLFAKSHTEWIMKQKQK | 0.0224
54 | HMNNKSDLLFNHLRQRIATMENGTIFPSVRQLMTEYNVSQSTVSTAIRSLKELGLLEALSRQGMVVRKE | 0.104
55 | HMGLGDLEVVDSIGKIRRDGQQMILAFGRHKGRDVQEVYNEDPRYINWLLSPKGIEDENGRGKVRDYLGIN | -0.678
56 | HMHDNPLSAQEQRVLDLIAAGKTSKEIASQLFLSDGTVRNYTTSIFNKLNANNRVEAINIAQENGW | 0.123
57 | HMGYPYDTVTTAKVNLRAKRSTSSDILKKIPEGATVTVKGVTGTFASVDYNGTSGYVKVDYLV | -0.196
58 | HMSKRIFPNEFQRNSPDAMVMLDKMNLSRINVDPLTKSLTLNGGGSVKTLLNGREVSAVEIAALSP | 0.156
59 | HMRIVSGRESMLGRTVVVADWAGERGHVVVDGERWNAVASTPLAAGRRARIVGIDGLTLSVSPDDKP | 0.0452
60 | HMEDVPYMIKLPSHHYLTKMVDGSTGWSLVQNSNTVVGSSKEELLKQYPEYEDFIVQEPLNV | -0.336
61 | HMPSTVSVPDVAGSSLSEAKTTIKSSGLKVGTVHKVSSDTVESGYVIKTSPTAGSSKKEGSSIDIYVSKG | -0.026
62 | HMKRDNETRRRIVAAAEELFRAKGLDGVNMRELAEMAGVNKGLLHYYFKTKQALFREILVGQMAL | -0.0908
63 | HMQNNIEFTVLEEDAQKRLDVLLSEKTALSRSASASLIEEGGVLVNGRKEPKKYKPVRGEIITAILPE | -0.549
64 | HMENNNIAFSKFLEEVDSGRVVQVEIQGNNISGTLSDGSKFKTYSPNYPDLVSKLSEKNVSIIASPV | 0.166
65 | HMPKLSNNHMAVWQAIRSRTAKGEPSTRAVIRDDLKAAGMDTSKHFSRWLTKLIDLGMVVKDGENLSIR | 0.219
66 | HMDSKKNLLGKNGLAFTTLRPAGTVLIDGQRHDVISNGDMIPKGATVRVIAIEGASITVEALPD | -0.309
67 | HMIGMDMQELIGRYKGDPDEMGKIELAAMSMLKLSEDMSSDHVLQKSKLRQDGLWLLKYVQE | -1.03
68 | HMTVLTDEIKVILISYIKENDFKKKHGNRKMMMTAQDMYDELVEKGYKISYPTVTQYVQKYRENETT | -0.0952
69 | HMSQLETEEAKRIVLKDLLRLYNNYNIIELEEDEFDRFITYLNMPYDFLQKTSDYDLAVSIKRMYASY | -1.79
70 | HMKKMEEEFALFNAWVDRRLGIPLAAYKENQMQRRILTIMENSGAKTLREYQQLIEGDEGVRAAFLAHIT | -1.76
71 | HMGIDRPLFTLAQFARQIGEQVKISLSLPQDGRRRLQGKVLSVGESGIVLDVDGREFTVAIGNVDKARL | -0.197
72 | HMSQPALSYAFAKAQGVIVTALGDVAEVARRKGSQPQALAEVRRIAGRPLALREVDDAAFDRLLQDHYARS | -0.0203
73 | HMAKRINVKLIMELSAGGLTQNEIASSRHFSKTSVNLVLKTARELNVSAADLREMSPEEAYRLFFPEK | -0.0837
74 | HMAVTKVKVITESSNLNIRKGPGTDQPIVGKAAHHEIITLVNKSNDQWWLVRTNDGEEGYSYSRYLEPVT | -0.153
75 | HMVDKTMYDRYAVDDYVRVIDGPLVGTEGRIIELDRETGNVKIEAVFFGRVTTADINFALIEKVD | -1.33
76 | HMGRQTITLPDFSGQDLEQVKARLTEWGLVPEEKSVFSDSVPLGSVVRTVPAEGDEVSVGDTVTVYKSLGR | 0.252
